The text below walks through data of PMC6744478, “Development of R7BP inhibitors through cross-linking coupled mass spectrometry and integrated modeling” (Communications Biology, 2019).

Common to all, as to test: SPR; OpenSPR (Nicoya), Streptavidin sensor chip; tagged R7BP variant as ligand, purified R7-RGS/Gβ5 duplex as analyte at 3–5 concentrations; PBS pH 7.4, 0.005% Tween20; 25 µL per minute; 1:1-binding model; two independent experiments
What all share (details): both partners purified
In general terms: SPR reads the build-up and loss of mass on a sensor chip optically.

One test has as its target T1, RGS6/Gβ5 duplex (human, UniProt P49758 1-472; O14775-2 1-353).
T1 construct: RGS6 (regulator of G protein signaling 6), human; Gβ5 (GNB5), human, short form; Only GNB5 constructs with an N-terminal 6x HIS or TS tag are described; also called RGS6 duplex; source: Expi293 HEK cells, transfected, purified
T1 sequence (looked up) 1: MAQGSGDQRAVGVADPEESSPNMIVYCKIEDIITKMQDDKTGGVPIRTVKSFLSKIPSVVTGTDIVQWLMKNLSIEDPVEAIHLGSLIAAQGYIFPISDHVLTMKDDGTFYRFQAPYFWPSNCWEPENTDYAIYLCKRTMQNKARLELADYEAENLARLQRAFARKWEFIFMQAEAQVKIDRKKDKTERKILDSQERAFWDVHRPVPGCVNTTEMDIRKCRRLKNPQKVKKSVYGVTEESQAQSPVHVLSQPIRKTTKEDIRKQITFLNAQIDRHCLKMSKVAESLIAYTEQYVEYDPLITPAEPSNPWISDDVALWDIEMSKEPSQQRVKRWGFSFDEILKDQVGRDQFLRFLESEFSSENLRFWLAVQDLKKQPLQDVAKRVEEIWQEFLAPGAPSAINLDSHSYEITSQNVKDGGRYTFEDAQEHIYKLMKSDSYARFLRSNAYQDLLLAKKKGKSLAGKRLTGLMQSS
T1 sequence (looked up) 2: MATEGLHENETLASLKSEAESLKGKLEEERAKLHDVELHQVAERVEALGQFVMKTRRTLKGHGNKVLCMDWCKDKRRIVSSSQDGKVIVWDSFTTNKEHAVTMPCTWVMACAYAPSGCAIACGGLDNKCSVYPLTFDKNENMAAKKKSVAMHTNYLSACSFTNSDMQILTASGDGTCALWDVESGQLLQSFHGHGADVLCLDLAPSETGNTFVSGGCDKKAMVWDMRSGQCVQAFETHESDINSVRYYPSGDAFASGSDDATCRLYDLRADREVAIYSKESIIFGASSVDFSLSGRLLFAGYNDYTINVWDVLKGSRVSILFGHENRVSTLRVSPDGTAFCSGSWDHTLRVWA

The next test deals with T2, RGS7/Gβ5 duplex (human, UniProt P49802 1-495; O14775-2 1-353).
T2 construct: RGS7 (regulator of G protein signaling 7), human; cDNA in pCMV3 vector from Sino Biological; holds the loop RGS7-LP21 at aa230–250; Gβ5 (GNB5), human, short form; also called RGS7 duplex; RGS7/HIS-Gβ5; source: Expi293 HEK cells, transfected, purified; not shown: 6x HIS (named on the purified RGS7/HIS-Gβ5 of the Western blot)
T2 sequence (looked up) 1: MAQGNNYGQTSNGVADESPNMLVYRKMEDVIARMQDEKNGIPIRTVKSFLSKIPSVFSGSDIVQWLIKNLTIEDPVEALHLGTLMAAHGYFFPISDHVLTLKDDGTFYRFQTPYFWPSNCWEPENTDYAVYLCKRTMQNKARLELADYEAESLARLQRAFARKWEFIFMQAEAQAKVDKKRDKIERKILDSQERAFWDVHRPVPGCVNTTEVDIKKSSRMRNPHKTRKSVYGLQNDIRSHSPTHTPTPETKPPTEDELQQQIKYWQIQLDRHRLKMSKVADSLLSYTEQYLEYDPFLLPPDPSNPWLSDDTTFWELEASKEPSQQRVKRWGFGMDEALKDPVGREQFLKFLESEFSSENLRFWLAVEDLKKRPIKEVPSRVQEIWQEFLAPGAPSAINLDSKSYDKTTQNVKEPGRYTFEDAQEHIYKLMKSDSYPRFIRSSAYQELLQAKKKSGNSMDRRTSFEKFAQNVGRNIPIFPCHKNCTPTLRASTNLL
T2 sequence (looked up) 2: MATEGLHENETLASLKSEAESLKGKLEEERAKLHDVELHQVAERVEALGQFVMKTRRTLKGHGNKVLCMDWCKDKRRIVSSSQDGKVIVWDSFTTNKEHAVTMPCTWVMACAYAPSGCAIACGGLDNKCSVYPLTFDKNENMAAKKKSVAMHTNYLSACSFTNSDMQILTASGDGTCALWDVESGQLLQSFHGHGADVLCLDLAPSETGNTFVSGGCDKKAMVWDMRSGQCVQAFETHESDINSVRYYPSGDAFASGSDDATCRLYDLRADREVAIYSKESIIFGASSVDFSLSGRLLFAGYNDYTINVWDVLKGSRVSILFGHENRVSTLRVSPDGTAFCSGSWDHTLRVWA

A further test has as its target T3, RGS9/Gβ5 duplex (human, UniProt O75916 1-674; O14775-2 1-353).
T3 construct: RGS9-2 (regulator of G protein signaling 9, splice form 2), human; cDNA in pCMV3 vector from Sino Biological; Gβ5 (GNB5), human, short form; also called RGS9 duplex; RGS9-2/Gβ5; source: Expi293 HEK cells, transfected, purified
T3 sequence (looked up) 1: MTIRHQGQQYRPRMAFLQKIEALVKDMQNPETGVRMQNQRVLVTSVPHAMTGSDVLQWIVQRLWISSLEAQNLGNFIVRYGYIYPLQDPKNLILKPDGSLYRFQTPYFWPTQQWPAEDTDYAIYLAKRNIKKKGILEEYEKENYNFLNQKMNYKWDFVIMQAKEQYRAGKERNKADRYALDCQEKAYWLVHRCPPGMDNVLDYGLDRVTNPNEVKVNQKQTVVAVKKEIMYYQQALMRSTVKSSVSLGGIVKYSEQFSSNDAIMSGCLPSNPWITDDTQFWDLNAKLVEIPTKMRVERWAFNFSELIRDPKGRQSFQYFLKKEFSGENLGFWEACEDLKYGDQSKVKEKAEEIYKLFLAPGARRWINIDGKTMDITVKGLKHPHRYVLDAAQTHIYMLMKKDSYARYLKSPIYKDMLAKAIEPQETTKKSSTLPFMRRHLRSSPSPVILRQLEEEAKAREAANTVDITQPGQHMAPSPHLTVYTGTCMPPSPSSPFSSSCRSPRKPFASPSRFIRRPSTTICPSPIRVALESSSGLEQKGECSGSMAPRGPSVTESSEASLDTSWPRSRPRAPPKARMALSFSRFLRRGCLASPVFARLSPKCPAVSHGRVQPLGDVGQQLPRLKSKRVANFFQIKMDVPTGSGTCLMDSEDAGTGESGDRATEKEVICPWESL
T3 sequence (looked up) 2: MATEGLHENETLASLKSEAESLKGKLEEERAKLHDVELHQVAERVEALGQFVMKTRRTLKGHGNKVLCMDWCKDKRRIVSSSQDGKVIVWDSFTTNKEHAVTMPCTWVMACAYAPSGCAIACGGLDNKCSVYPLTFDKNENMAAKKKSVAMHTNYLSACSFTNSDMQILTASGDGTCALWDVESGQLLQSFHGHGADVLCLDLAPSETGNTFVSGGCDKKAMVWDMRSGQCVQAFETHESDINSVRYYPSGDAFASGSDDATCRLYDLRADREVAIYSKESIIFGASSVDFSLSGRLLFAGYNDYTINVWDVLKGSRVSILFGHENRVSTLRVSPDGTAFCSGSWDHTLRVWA

The target in another test is T4, RGS11/Gβ5 duplex (human, UniProt O94810 1-467; O14775-2 1-353).
T4 construct: RGS11 (regulator of G protein signaling 11), human; Gβ5 (GNB5), human, short form; also called RGS11 duplex; source: Expi293 HEK cells, transfected, purified
T4 sequence (O94810 whole entry, one chain of several): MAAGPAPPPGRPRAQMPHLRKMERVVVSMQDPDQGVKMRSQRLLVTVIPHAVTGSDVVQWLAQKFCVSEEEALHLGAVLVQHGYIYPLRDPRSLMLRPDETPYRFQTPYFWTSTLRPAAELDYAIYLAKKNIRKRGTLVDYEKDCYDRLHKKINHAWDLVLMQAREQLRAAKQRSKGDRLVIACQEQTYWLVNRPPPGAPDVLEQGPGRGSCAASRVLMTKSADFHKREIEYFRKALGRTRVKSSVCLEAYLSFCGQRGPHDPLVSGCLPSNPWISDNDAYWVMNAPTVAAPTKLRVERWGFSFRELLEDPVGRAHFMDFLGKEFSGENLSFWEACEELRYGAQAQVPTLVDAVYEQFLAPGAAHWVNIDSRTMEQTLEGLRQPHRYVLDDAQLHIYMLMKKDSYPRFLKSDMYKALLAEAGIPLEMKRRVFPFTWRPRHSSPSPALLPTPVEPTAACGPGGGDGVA

B1: R7BP-FL (full-length R7BP; construct R7BP-TEV-TS) (natural protein, human, UniProt Q6MZT1 1-257, looked up)
chain: MSSAPNGRKKRPSRSTRSSIFQISKPPLQSGDWERRGSGSESAHKTQRALDDCKMLVQEFNTQVALYRELVISIGDVSVSCPSLRAEMHKTRTKGCEMARQAHQKLAAISGPEDGEIHPEICRLYIQLQCCLEMYTTEMLKSICLLGSLQFHRKGKEPGGGTKSLDCKIEESAETPALEDSSSSPVDSQQHSWQVSTDIENTERDMREMKNLLSKLRETMPLPLKNQDDSSLLNLTPYPLVRRRKRRFFGLSSLISS
notes: last residue 257 by the printed aa223–257; palmitoylation site removed; also called RGS7BP; source: Expi293 HEK cells, transfected, purified (StrepTrap HP; SEC if needed); not shown: Twin-Strep (after a TEV protease site), C-terminal, kept
A word on the Kd: it is the constant that tells how readily two partners part at equilibrium. As for B1, the Kd with RGS6/Gβ5 duplex came out at 2.3 nM; with RGS7/Gβ5 duplex, 19 nM; in the test with RGS9/Gβ5 duplex, 1.5 nM; in the test with RGS11/Gβ5 duplex, 2.3 nM.

B2: R7BPΔN (domain or fragment, human, UniProt Q6MZT1 22-257, looked up)
chain: QISKPPLQSGDWERRGSGSESAHKTQRALDDCKMLVQEFNTQVALYRELVISIGDVSVSCPSLRAEMHKTRTKGCEMARQAHQKLAAISGPEDGEIHPEICRLYIQLQCCLEMYTTEMLKSICLLGSLQFHRKGKEPGGGTKSLDCKIEESAETPALEDSSSSPVDSQQHSWQVSTDIENTERDMREMKNLLSKLRETMPLPLKNQDDSSLLNLTPYPLVRRRKRRFFGLSSLISS
notes: R7BP (RGS7BP), human, lacking the N-terminal 21 amino acids (R7BP-N21); C252S, C253S are stated for all R7BP constructs; Its tag is surmised from its use as SPR ligand; also called truncated R7BP derivative lacking the N-terminal 21 amino acids; source: Expi293 HEK cells, transfected, purified
Regarding B2, in the test with RGS7/Gβ5 duplex, the Kd came to 1.8 nM.

B3: R7BPΔC (domain or fragment, human, UniProt Q6MZT1 1-222, looked up)
chain: MSSAPNGRKKRPSRSTRSSIFQISKPPLQSGDWERRGSGSESAHKTQRALDDCKMLVQEFNTQVALYRELVISIGDVSVSCPSLRAEMHKTRTKGCEMARQAHQKLAAISGPEDGEIHPEICRLYIQLQCCLEMYTTEMLKSICLLGSLQFHRKGKEPGGGTKSLDCKIEESAETPALEDSSSSPVDSQQHSWQVSTDIENTERDMREMKNLLSKLRETMPL
notes: R7BP (RGS7BP), human, C-terminus aa223–257 removed (the mutated cysteines 252 and 253 lie in the removed stretch); Its tag is surmised from its use as SPR ligand; also called R7BP with the C-terminus (aa223–257) removed; source: Expi293 HEK cells, transfected, purified
Turning to B3, the Kd in the test with RGS7/Gβ5 duplex was found to be 9.9 nM.
